Data set [1] relates to HeLa Kyoto. The data set can be described thus: solubility change mitosis vs G1/S (difference of NP-40 vs SDS log2 ratios) (log2 ratio difference); higher = more soluble in mitosis.
Data set [2] has as its system HeLa Kyoto. The data set can be described thus: solubility in G1/S (NP-40 vs SDS abundance) (log2 ratio); higher = more soluble. The note with it: cell cycle stage: G1/S.
For data set [3], the system named is HeLa Kyoto. The data set is described as follows: melting temperature (median over replicates), in situ; higher = more thermally stable.
In data set [4] the test system is HeLa Kyoto. The data set is described as follows: thermal stability score vs G1/S (z-score of summed log2 fold changes over temperatures); higher = more thermally stable than in G1/S.
[5] abbreviates: cell cycle stage: early G1 (4.5 h after nocodazole release).
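Throughout, for melting temperature (median over replicates), in situ: HeLa Kyoto cells synchronized by double thymidine or nocodazole block, proteins quantified by TMT10plex mass spectrometry, three independent biological replicates.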
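Throughout, for solubility change mitosis vs G1/S (difference of NP-40 vs SDS log2 ratios): synchronized HeLa Kyoto cells (double thymidine block for G1/S, nocodazole release for mitosis), protein amounts in NP-40 versus SDS lysates quantified by mass spectrometry, three biological replicates.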
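Throughout, for solubility in G1/S (NP-40 vs SDS abundance): HeLa Kyoto cells arrested at G1/S by double thymidine block, proteins quantified by TMT10plex mass spectrometry in mild NP-40 versus SDS extracts, three biological replicates.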
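Throughout, for thermal stability score vs G1/S (z-score of summed log2 fold changes over temperatures): synchronized HeLa Kyoto cells, proteins quantified by TMT10plex mass spectrometry, three biological replicates, mitosis taken 0.5 h after nocodazole release, G1/S directly after double thymidine block.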

On to “MAETAAGVGRFKTNYAVERKIEPFYKGGKAQLDQTGQHLFCVCGTRVNILEVASGAVLRSLEQEDQEDITAFDLSPDNEVLVTASRALLLAQWAWQEGSVTRLWKAIHTAPVATMAFDPTSTLLATGGCDGAVRVWDIVRHYGTHHFRGSPGVVHLVAFHPDPTRLLLFSSATDAAIRVWSLQDRSCLAVLTAHYSAVTSLAFSADGHTMLSSGRDKICIIWDLQSCQATRTVPVFESVEAAVLLPEEPVSQLGVKSPGLYFLTAGDQGTLRVWEAASGQCVYTQAQPPGPGQELTHCTLAHTAGVVLTATADHNLLLYEARSLRLQKQFAGYSEEVLDVRFLGPEDSHVVVASNSPCLKVFELQTSACQILHGHTDIVLALDVFRKGWLFASCAKDQSVRIWRMNKAGQVMCVAQGSGHTHSVGTVCCSRLKESFLVTGSQDCTVKLWPLPKALLSKNTAPDNGPILLQAQTTQRCHDKDINSVAIAPNDKLLATGSQDRTAKLWALPQCQLLGVFSGHRRGLWCVQFSPMDQVLATASADGTIKLWALQDFSCLKTFEGHDASVLKVAFVSRGTQLLSSGSDGLVKLWTIKNNECVRTLDAHEDKVWGLHCSRLDDHALTGASDSRVILWKDVTEAEQAEEQARQEEQVVRQQELDNLLHEKRYLRALGLAISLDRPHTVLTVIQAIRRDPEACEKLEATMLRLRRDQKEALLRFCVTWNTNSRHCHEAQAVLGVLLRREAPEELLAYEGVRAALEALLPYTERHFQRLSRTLQAAAFLDFLWHNMKLPVPAAAPTPWETHKGALP [TBL3]”, for which the “solubility change mitosis (log2)” value in data set [1] turned out to be 0.233. Besides, the “solubility in G1/S (log2)” value in data set [2] is -0.936. The figures for the melting temperature in data set [3] (cell cycle stage: G1/S) and in data set [3] (cell cycle stage: mitosis) were 50.6 °C and 51.3 °C, respectively. For the same sequence, the thermal stability score was 1.58 in data set [4] (setting [5]) and -0.746 in data set [4] (cell cycle stage: mitosis).
Consider “MAETEERSLDNFFAKRDKKKKKERSNRAASAAGAAGSAGGSSGAAGAAGGGAGAGTRPGDGGTASAGAAGPGAATKAVTKDEDEWKELEQKEVDYSGLRVQAMQISSEKEEDDNEKRQDPGDNWEEGGGGGGGMEKSSGPWNKTAPVQAPPAPVIVTETPEPAMTSGVYRPPGARLTTTRKTPQGPPEIYSDTQFPSLQSTAKHVESRKDKEMEKSFEVVRHKNRGRDEVSKNQALKLQLDNQYAVLENQKSSHSQYN [CDV3]”, for which the “solubility change mitosis (log2)” value in data set [1] was 0.0994. Also, in data set [2], the “solubility in G1/S (log2)” value was -0.0527. The melting temperature is 57.2 °C in data set [3] (cell cycle stage: G1/S) and 53.4 °C in data set [3] (cell cycle stage: mitosis). Also, the thermal stability score in data set [4] (setting [5]) is -2.3; in data set [4] (cell cycle stage: mitosis), -4.45.
In the case of “MAEVKVKVQPPDADPVEIENRIIELCHQFPHGITDQVIQNEMPHIEAQQRAVAINRLLSMGQLDLLRSNTGLLYRIKDSQNAGKMKGSDNQEKLVYQIIEDAGNKGIWSRDIRYKSNLPLTEINKILKNLESKKLIKAVKSVAASKKKVYMLYNLQPDRSVTGGAWYSDQDFESEFVEVLNQQCFKFLQSKAETARESKQNPMIQRNSSFASSHEVWKYICELGISKVELSMEDIETILNTLIYDGKVEMTIIAAKEGTVGSVDGHMKLYRAVNPIIPPTGLVRAPCGLCPVFDDCHEGGEISPSNCIYMTEWLEF [POLR3F]”, the “solubility change mitosis (log2)” value in data set [1] was -0.0255. Also, the “solubility in G1/S (log2)” value in data set [2] is 0.528. Further, the figures for the melting temperature in data set [3] (cell cycle stage: G1/S) and in data set [3] (cell cycle stage: mitosis) were 52.4 °C and 52.7 °C, respectively. The thermal stability score in data set [4] (setting [5]) is -0.67; in data set [4] (cell cycle stage: mitosis) it was -1.78.
Consider “MAFAETYPAASSLPNGDCGRPRARPGGNRVTVVLGAQWGDEGKGKVVDLLAQDADIVCRCQGGNNAGHTVVVDSVEYDFHLLPSGIINPNVTAFIGNGVVIHLPGLFEEAEKNVQKGKGLEGWEKRLIISDRAHIVFDFHQAADGIQEQQRQEQAGKNLGTTKKGIGPVYSSKAARSGLRMCDLVSDFDGFSERFKVLANQYKSIYPTLEIDIEGELQKLKGYMEKIKPMVRDGVYFLYEALHGPPKKILVEGANAALLDIDFGTYPFVTSSNCTVGGVCTGLGMPPQNVGEVYGVVKAYTTRVGIGAFPTEQDNEIGELLQTRGREFGVTTGRKRRCGWLDLVLLKYAHMINGFTALALTKLDILDMFTEIKVGVAYKLDGEIIPHIPANQEVLNKVEVQYKTLPGWNTDISNARAFKELPVNAQNYVRFIEDELQIPVKWIGVGKSRESMIQLF [ADSS]”, for which the “solubility change mitosis (log2)” value in data set [1] is -0.0978. The “solubility in G1/S (log2)” value in data set [2] came out at 0.288. The values for the melting temperature in data set [3] (cell cycle stage: G1/S) and in data set [3] (cell cycle stage: mitosis) were 57.5 °C and 56.5 °C, respectively. The thermal stability score in data set [4] (setting [5]) is -2.13; in data set [4] (cell cycle stage: mitosis), -2.82.
As for “MAFANFRRILRLSTFEKRKSREYEHVRRDLDPNEVWEIVGELGDGAFGKVYKAKNKETGALAAAKVIETKSEEELEDYIVEIEILATCDHPYIVKLLGAYYHDGKLWIMIEFCPGGAVDAIMLELDRGLTEPQIQVVCRQMLEALNFLHSKRIIHRDLKAGNVLMTLEGDIRLADFGVSAKNLKTLQKRDSFIGTPYWMAPEVVMCETMKDTPYDYKADIWSLGITLIEMAQIEPPHHELNPMRVLLKIAKSDPPTLLTPSKWSVEFRDFLKIALDKNPETRPSAAQLLEHPFVSSITSNKALRELVAEAKAEVMEEIEDGRDEGEEEDAVDAASTLENHTQNSSEVSPPSLNADKPLEESPSTPLAPSQSQDSVNEPCSQPSGDRSLQTTSPPVVAPGNENGLAVPVPLRKSRPVSMDARIQVAQEKQVAEQGGDLSPAANRSQKASQSRPNSSALETLGGEKLANGSLEPPAQAAPGPSKRDSDCSSLCTSESMDYGTNLSTDLSLNKEMGSLSIKDPKLYKKTLKRTRKFVVDGVEVSITTSKIISEDEKKDEEMRFLRRQELRELRLLQKEEHRNQTQLSNKHELQLEQMHKRFEQEINAKKKFFDTELENLERQQKQQVEKMEQDHAVRRREEARRIRLEQDRDYTRFQEQLKLMKKEVKNEVEKLPRQQRKESMKQKMEEHTQKKQLLDRDFVAKQKEDLELAMKRLTTDNRREICDKERECLMKKQELLRDREAALWEMEEHQLQERHQLVKQQLKDQYFLQRHELLRKHEKEREQMQRYNQRMIEQLKVRQQQEKARLPKIQRSEGKTRMAMYKKSLHINGGGSAAEQREKIKQFSQQEEKRQKSERLQQQQKHENQMRDMLAQCESNMSELQQLQNEKCHLLVEHETQKLKALDESHNQNLKEWRDKLRPRKKALEEDLNQKKREQEMFFKLSEEAECPNPSTPSKAAKFFPYSSADAS [STK10]”, the “solubility change mitosis (log2)” value in data set [1] is -0.0397. The “solubility in G1/S (log2)” value in data set [2] came out at 0.0626. Besides, the figures for the melting temperature in data set [3] (cell cycle stage: G1/S) and in data set [3] (cell cycle stage: mitosis) were 48.1 °C and 48.2 °C, respectively. The thermal stability score in data set [4] (setting [5]) came to 1.19; in data set [4] (cell cycle stage: mitosis), 2.43.
On to “MAFNFGAPSGTSGTAAATAAPAGGFGGFGTTSTTAGSAFSFSAPTNTGTTGLFGGTQNKGFGFGTGFGTTTGTSTGLGTGLGTGLGFGGFNTQQQQQTTLGGLFSQPTQAPTQSNQLINTASALSAPTLLGDERDAILAKWNQLQAFWGTGKGYFNNNIPPVEFTQENPFCRFKAVGYSCMPSNKDEDGLVVLVFNKKETEIRSQQQQLVESLHKVLGGNQTLTVNVEGTKTLPDDQTEVVIYVVERSPNGTSRRVPATTLYAHFEQANIKTQLQQLGVTLSMTRTELSPAQIKQLLQNPPAGVDPIIWEQAKVDNPDSEKLIPVPMVGFKELLRRLKVQDQMTKQHQTRLDIISEDISELQKNQTTSVAKIAQYKRKLMDLSHRTLQVLIKQEIQRKSGYAIQADEEQLRVQLDTIQGELNAPTQFKGRLNELMSQIRMQNHFGAVRSEERYYIDADLLREIKQHLKQQQEGLSHLISIIKDDLEDIKLVEHGLNETIHIRGGVFS [NUP54]”, for which, in data set [1], the “solubility change mitosis (log2)” value is 0.0698. Also, the “solubility in G1/S (log2)” value in data set [2] worked out at 0.299. Besides, the melting temperature in data set [3] (cell cycle stage: G1/S) stood at 51.5 °C; in data set [3] (cell cycle stage: mitosis), 49 °C. The thermal stability score is -3.43 in data set [4] (setting [5]) and -5.53 in data set [4] (cell cycle stage: mitosis).
For the sequence “MAFPPRRRLRLGPRGLPLLLSGLLLPLCRAFNLDVDSPAEYSGPEGSYFGFAVDFFVPSASSRMFLLVGAPKANTTQPGIVEGGQVLKCDWSSTRRCQPIEFDATGNRDYAKDDPLEFKSHQWFGASVRSKQDKILACAPLYHWRTEMKQEREPVGTCFLQDGTKTVEYAPCRSQDIDADGQGFCQGGFSIDFTKADRVLLGGPGSFYWQGQLISDQVAEIVSKYDPNVYSIKYNNQLATRTAQAIFDDSYLGYSVAVGDFNGDGIDDFVSGVPRAARTLGMVYIYDGKNMSSLYNFTGEQMAAYFGFSVAATDINGDDYADVFIGAPLFMDRGSDGKLQEVGQVSVSLQRASGDFQTTKLNGFEVFARFGSAIAPLGDLDQDGFNDIAIAAPYGGEDKKGIVYIFNGRSTGLNAVPSQILEGQWAARSMPPSFGYSMKGATDIDKNGYPDLIVGAFGVDRAILYRARPVITVNAGLEVYPSILNQDNKTCSLPGTALKVSCFNVRFCLKADGKGVLPRKLNFQVELLLDKLKQKGAIRRALFLYSRSPSHSKNMTISRGGLMQCEELIAYLRDESEFRDKLTPITIFMEYRLDYRTAADTTGLQPILNQFTPANISRQAHILLDCGEDNVCKPKLEVSVDSDQKKIYIGDDNPLTLIVKAQNQGEGAYEAELIVSIPLQADFIGVVRNNEALARLSCAFKTENQTRQVVCDLGNPMKAGTQLLAGLRFSVHQQSEMDTSVKFDLQIQSSNLFDKVSPVVSHKVDLAVLAAVEIRGVSSPDHVFLPIPNWEHKENPETEEDVGPVVQHIYELRNNGPSSFSKAMLHLQWPYKYNNNTLLYILHYDIDGPMNCTSDMEINPLRIKISSLQTTEKNDTVAGQGERDHLITKRDLALSEGDIHTLGCGVAQCLKIVCQVGRLDRGKSAILYVKSLLWTETFMNKENQNHSYSLKSSASFNVIEFPYKNLPIEDITNSTLVTTNVTWGIQPAPMPVPVWVIILAVLAGLLLLAVLVFVMYRMGFFKRVRPPQEEQEREQLQPHENGEGNSET [ITGAV]”, the “solubility change mitosis (log2)” value in data set [1] was -0.152. For the same sequence, the “solubility in G1/S (log2)” value in data set [2] came out at 0.295. Besides, the melting temperature in data set [3] (cell cycle stage: G1/S) amounted to 56 °C; in data set [3] (cell cycle stage: mitosis), 54.8 °C. In addition, the thermal stability score in data set [4] (setting [5]) is -1.75; in data set [4] (cell cycle stage: mitosis), -1.34.

These data come from the supplement of paper PMC5998384.
